Measured values reported in patent US20250277030A1, “ANTI-NAPI2B ANTIBODIES AND METHODS OF USE” (Zymeworks BC Inc., priority 2022, published 2025).

How the values were obtained:
human NaPi2b = target: T1, human NaPi2b (Homo sapiens, UniProt O95436); assay: Flow cytometry binding to HEK293-6e cells transfected with human NaPi2b (Example 5); details: transfected HEK293-6e cells, 18-24 hours at 4° C.
T1 construct: host or cells: HEK293-6e
T1 sequence (O95436 1-690): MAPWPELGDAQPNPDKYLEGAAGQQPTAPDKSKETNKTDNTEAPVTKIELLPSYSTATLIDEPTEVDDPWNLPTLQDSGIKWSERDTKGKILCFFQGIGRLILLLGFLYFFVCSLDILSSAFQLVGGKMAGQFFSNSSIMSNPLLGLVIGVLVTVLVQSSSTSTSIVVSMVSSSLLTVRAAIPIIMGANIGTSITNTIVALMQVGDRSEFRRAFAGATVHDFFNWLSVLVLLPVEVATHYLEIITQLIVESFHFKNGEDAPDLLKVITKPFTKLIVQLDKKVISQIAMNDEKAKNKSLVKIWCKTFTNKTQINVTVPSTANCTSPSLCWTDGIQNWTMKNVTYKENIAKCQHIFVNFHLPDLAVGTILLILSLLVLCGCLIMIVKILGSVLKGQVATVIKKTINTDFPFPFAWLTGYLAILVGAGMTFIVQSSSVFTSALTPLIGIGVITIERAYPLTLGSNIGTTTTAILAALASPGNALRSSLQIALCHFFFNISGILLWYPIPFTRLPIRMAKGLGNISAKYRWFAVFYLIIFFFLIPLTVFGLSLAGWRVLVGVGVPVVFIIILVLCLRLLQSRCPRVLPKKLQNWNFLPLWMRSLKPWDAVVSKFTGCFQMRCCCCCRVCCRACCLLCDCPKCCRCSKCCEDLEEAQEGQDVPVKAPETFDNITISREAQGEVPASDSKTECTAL
Description: The binding cross-reactivity of humanized antibody variant v29456 to human, cynomolgus and mouse NaPi2b was assessed by flow cytometry using HEK293-6e transfected cells.
Briefly, HEK293-6e cells were transfected for ˜24 hours to transiently express human NaPi2b, cynomolgus or mouse NaPi2b, at 1 μg of DNA per 1 million cells. Following transfection, 50,000 cells per well were seeded in V-bottom 96-well plates and incubated with 200 nM of primary antibody for 18-24 hours at 4° C. to prevent internalization. Post-incubation, cells were washed and stained with anti-Human IgG Fc AF647 conjugate (Jackson Immuno Research Labs, West Grove, PA, Cat. No. 109-605-098, Lot. No. 124868) at 4° C. for 1 hour. Following staining and washing, fluorescence was detected by flow cytometry on BD LSRFortessa™ Cell Analyzer (BD Biosciences, Franklin Lake, NJ) with 10,000 minimum events collected per well. The AF647/APC-A GeoMean (fluorescence signal geometric mean, proportional to anti-Human AF647 binding) was calculated for the live singlet cell population for each primary antibody using FlowJo™ v8 software (BD Biosciences, Franklin Lake, NJ). The Bmax and Kd of each primary antibody were calculated using GraphPad Prism Version 9 (GraphPad Software, San Diego, CA)

[1] = Stability (fragmentation) in PBS pH 7.4 at 37° C. by LC-MS; type: physicochemical; details: for apparent % desired proteoforms: PBS 37° C., 0.5 mg/ml
Description: Samples were removed after 0, 7 and 14 days and stored at −80° C. until characterization. For characterization, samples were thawed at room temperature and 50 μg were incubated with 5 μg of recombinant EndoS endoglycosidase for one hour at room temperature. An immunoprecipitation slurry was generated by a 45 min incubation of 95 μL/sample of magnetic Sepharose streptavidin-coated beads with 15 μg/sample of biotinylated goat anti-Human IgG Fc capture antibody, followed by 4 washes with PBS pH 7.4 with the aid of a DynaMag™-2 magnet (Invitrogen™).
After deglycosylation, plasma-incubated samples were incubated with 95 μL of the immunoprecipitation slurry for 1.5 hrs at room temperature. Then, the slurry underwent 6 washes with PBS pH 7.4 and 2 washes with LC-MS-grade water with the aid of a DynaMag™-2 magnet (Invitrogen™). A final wash with PBS pH 7.4 was performed before elution. Protein was eluted by incubating beads with 35 μL of LC-MS grade water with 20% acetonitrile and 0.1% formic acid for one hour at room temperature. PBS samples were not immunoprecipitated.
5 μL of the eluted sample were transferred to glass inserts in LC-MS vials. For LC-MS analysis, 1 μL of sample were injected into a Waters™ BioSuite Phenyl Column, 1000 Å, 10 μm, 4.6 mm×75 mm using a Waters™ ACQUITY™ UPLC I-Class HPLC system coupled to a Waters™ Synapt™ G2-Si HDMS with a column temperature of 70 C and a flow rate of 0.3 mL/min. Mobile phases consisted of A: LC-MS grade water with 0.1% v/v formic acid, 0.025 v/v trifluoroacetic acid and 10% v/v isopropyl alcohol in, and B: acetonitrile with 0.1% v/v formic acid and 10% v/v isopropyl alcohol. The column was pre-equilibrated in 10% mobile phase B before injection. Then, a 20 min 10 to 27% mobile phase B gradient was applied, followed by a 2 min 27 to 90% mobile phase B gradient and a column wash of 2 min at 99% mobile phase B.
The column was re-equilibrated to 10% mobile phase B for 2 minutes between runs. ESI was performed in positive mode with 3 kV of capillary voltage, 120 C source temperature, 100 V sampling cone voltage, source offset of 80 V, source gas flow of 0 ml/min, desolvation temperature 500 C, cone gas flow 0 μL/Hr, desolvation gas flow […], nebuliser gas flow 6.5 bar. Data format was continuum with analyser set in sensitivity mode, with a m/z range from 500 to 7000.
Peak integration, MS deconvolution and mass assignments were performed in Protein Metrics Byos® v4.0 using a deconvolution window of 60000-160000 Da with an m/z range of 1000-4000. For all time points, the highest intensity deconvoluted mass was assigned as the reference mass of v29456. […]

- Bmax (APC-A GeoMean), Hu NaPi2b (human NaPi2b): 2,538 APC-A GeoMean
- Kd (human NaPi2b; highest antibody concentration 200 nM, read-out: Apparent Kd (nM), Hu NaPi2b): 5.2 nM
B1: v29456: humanized anti-NaPi2b IgG1/kappa antibody H1L2; VH SEQ ID NO:24, VL SEQ ID NO:29 (antibody, V domains shown)
VH: QVQLVQSGAEVKKPGASVKVSCKASGFTFTSYNVHWVRQAPGQGLEWMGAISPGNGDLSYAQKFQGRVTMTRDTSTSTVYMELSSLRSEDTAVYYCARGRTGMGAVDYWGQGTLVTVSS
VL: DVQMTQSPSSLSASVGDRVTITCRASQDVYSYLNWYQQKPGKAVKLLIYYTSRLQSGVPSRFSGSGSGTDYTLTISSLQPEDFATYYCQQYNIFPWTFGQGTKLEIK
modifications: v29452, v29456, v29460 VH (H1); v29453, v29454, v29455, v29456 VL (L2)
- fragmentation in PBS pH 7.4, in words ([1]; 37° C., 7 and 14 days): no evidence of fragmentation
- apparent % desired proteoforms ([1]; 0 days): 99.8%
- apparent % desired proteoforms ([1]; 7 days): 99.2%
- apparent % desired proteoforms ([1]; 14 days): 99.6%
